According to article PMC3278721 (Molecular Cell, 2012):

T1: Maltose Binding Protein fused to ROS1 full-length (MBP-ROS1) (Arabidopsis, UniProt Q9SJQ6 1-1393)
T1 sequence (looked up): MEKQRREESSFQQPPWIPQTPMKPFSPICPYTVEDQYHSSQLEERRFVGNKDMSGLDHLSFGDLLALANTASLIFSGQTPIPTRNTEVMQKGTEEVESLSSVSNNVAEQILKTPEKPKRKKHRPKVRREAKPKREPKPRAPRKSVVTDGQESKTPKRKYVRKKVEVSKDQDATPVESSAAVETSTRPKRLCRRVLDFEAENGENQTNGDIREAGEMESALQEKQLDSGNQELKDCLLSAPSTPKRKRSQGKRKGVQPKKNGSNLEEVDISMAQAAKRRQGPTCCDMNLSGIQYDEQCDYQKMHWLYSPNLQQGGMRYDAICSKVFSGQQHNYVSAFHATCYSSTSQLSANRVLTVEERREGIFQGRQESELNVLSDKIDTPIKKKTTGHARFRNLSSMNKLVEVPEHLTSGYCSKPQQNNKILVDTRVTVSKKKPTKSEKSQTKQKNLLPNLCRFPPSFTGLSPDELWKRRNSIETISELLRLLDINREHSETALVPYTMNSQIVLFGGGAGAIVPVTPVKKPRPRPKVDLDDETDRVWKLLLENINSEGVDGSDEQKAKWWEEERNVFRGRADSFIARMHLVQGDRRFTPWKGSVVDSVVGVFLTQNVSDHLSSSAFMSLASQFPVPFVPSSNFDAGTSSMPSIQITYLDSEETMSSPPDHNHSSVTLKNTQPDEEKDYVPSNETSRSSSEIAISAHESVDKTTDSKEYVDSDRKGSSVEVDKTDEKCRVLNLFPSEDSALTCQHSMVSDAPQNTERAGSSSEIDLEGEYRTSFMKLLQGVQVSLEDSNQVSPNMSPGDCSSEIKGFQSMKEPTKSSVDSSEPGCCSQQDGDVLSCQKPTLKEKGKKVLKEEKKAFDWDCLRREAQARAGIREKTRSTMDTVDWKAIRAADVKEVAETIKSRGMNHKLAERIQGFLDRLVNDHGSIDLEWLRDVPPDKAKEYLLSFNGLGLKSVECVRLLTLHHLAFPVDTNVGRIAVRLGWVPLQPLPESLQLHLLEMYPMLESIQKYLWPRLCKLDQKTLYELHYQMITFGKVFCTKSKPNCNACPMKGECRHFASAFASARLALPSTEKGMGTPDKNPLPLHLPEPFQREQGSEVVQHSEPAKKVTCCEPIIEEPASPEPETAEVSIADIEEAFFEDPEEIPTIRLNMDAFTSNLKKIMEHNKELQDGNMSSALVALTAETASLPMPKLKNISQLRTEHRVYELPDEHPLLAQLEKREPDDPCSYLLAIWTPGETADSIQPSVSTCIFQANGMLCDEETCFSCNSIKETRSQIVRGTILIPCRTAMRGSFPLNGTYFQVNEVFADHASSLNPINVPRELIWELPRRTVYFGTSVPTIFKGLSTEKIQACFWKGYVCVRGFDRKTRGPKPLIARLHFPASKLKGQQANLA

T2: Purified full-length ROS1 fused to His6-tag (FL-ROS1) (Arabidopsis, UniProt Q9SJQ6 1-1393)
T2 sequence (looked up): T1 sequence (looked up)

B1: His-tagged ZDP (Arabidopsis thaliana zinc finger DNA 3'-phosphoesterase) (enzyme, UniProt Q84JE8 1-694, looked up)
chain: MITVAPFVSLRFQFPLYIINRSTLFFRERTQYLVYNTCHILRTTAKTMPVVAEYAKSNRSSCRSCSNKIAVKSLRLGLISKGRGGVDMTRWHHFDCFPTDSESIASVDDIQGLSALEKEDQDALTKLVEQCGKVPAKKPDEKKGKAKKHIMGPKGLTKAATSSKVIADNAKSSRSSCNRCSQTIVSKDLRVGLVTEDSRGFDITRWHHLGCFPIDFHPIDSVEDIGGYSSLEKGDQMELKYLAEVNKKDKTLIDDVQKMDEGDDEAIADNELTEETKKGKHSPVAKLVEQPGEPAKEDEDEESKKPASDEISEQKTKDVKNSPDSSKVISEYAKSSRSTCKKCSQTIAAKELRLGLVTRNFRGFDMKQWHHLGCFPVDSDPIVSVEDIGGFSELQSGDQDALKELVQQCGKQTLVDKMDEDNDDTEAKIKLTEETNKRKHSEVGEMVEEDESLTKAKQQMAKTHKVNMSESTSQVEVEAEITLSASDVKDKYRDANLLPKWKAFETVIFLERDDGLNDSEKIAAFDFDGCLAKTSVKIVGADAWSLMYPSIPEKLQSLHDQGYKLVIFTNESNIDRWKNKRQAAVDSKIGRLNSFIERVKVPIQVFIACGVSSSGGKGGKDDLYRKPKAGMWQLMKKHFNSGIAIDMDKSFYVGDAAGRKMDHSDADIKFAQASGLKFFTPEEYFIPSSTSPGT
B2: MBP-ZDP (enzyme, Arabidopsis thaliana, UniProt Q84JE8 1-694, looked up)
chain: B1 chain

What was measured:
[1] = target: T1, Maltose Binding Protein fused to ROS1 …; experiment: pull-down
[2] = target: T2, Purified full-length ROS1 fused to …; experiment: pull-down

Binder	binding result [1]	binding result [2]
B1	binds	–
B2	–	binds
